The assay has as its target T1, EPO receptor (expressed on TF-1 cells) (UniProt P19235).
T1 sequence (looked up): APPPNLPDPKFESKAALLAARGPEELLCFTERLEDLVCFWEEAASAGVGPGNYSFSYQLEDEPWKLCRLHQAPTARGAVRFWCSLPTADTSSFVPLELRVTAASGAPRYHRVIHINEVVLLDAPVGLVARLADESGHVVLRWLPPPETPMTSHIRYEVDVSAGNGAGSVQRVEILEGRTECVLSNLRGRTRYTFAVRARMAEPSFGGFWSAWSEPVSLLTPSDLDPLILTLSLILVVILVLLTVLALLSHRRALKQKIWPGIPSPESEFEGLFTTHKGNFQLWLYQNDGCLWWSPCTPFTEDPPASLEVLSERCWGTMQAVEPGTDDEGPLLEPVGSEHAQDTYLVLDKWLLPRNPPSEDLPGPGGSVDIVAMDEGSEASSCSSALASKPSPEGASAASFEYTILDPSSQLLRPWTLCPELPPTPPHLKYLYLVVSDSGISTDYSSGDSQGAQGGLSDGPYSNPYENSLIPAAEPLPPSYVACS
The experiment in a line: cell-based or functional assay.

For the substance EPO (Aranesp®) (ligand), the ED50, TF-1 cell proliferation (3H-thymidine incorporation); S.D. 0.96, N 10 worked out at 2.4 ng/mL.

The values are drawn from patent US20050202538A1 (Merck KGaA, published 2005).
